Measured values from PMC6182141, “Lytic gene expression in the temperate bacteriophage GIL01 is activated by a phage-encoded LexA homologue”.
Where a chain is given by its changes, count along the chain named.

Assays:
[1] = target: T1, gp7 (Bacillus thuringiensis phage GIL01) (UniProt Q7WSG2); assay: EMSA; details: SPR: 25 mM Tris-HCl pH 7.4, 140 mM NaCl, 5 mM EDTA, 2 mM DTT, 0.1 mg/ml BSA, 0.005% P20, 25 C; EMSA and footprinting buffers as in cited work
T1 sequence: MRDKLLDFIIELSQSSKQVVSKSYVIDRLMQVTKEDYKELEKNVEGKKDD

gp6 K38A = target: T2, gp6 K38A (Bacillus thuringiensis phage GIL01, UniProt Q5ILC6 1-66, K38A); assay: SPR; 2.34-150 nM; SPR: 25 mM Tris-HCl pH 7.4, 140 mM NaCl, 5 mM EDTA, 2 mM DTT, 0.1 mg/ml BSA, 0.005% P20, 25 C; EMSA and footprinting buffers as in cited work; details: protein: recombinant; tags: N-terminal His6 + thrombin site; chain copies: 2; label: 3'-biotin-TEG on S1 capture oligo; 36 bp duplex, 5' overhang 15 nt annealed to immobilized S1 (S39)
T2 sequence: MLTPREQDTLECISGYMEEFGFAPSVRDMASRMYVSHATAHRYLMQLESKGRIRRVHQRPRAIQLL

gp6 [2] = target: T3, gp6 (Bacillus thuringiensis phage GIL01, UniProt Q5ILC6); assay: SPR; gp6 2.34-150 nM (Fig. 6D); SPR: 25 mM Tris-HCl pH 7.4, 140 mM NaCl, 5 mM EDTA, 2 mM DTT, 0.1 mg/ml BSA, 0.005% P20, 25 C; EMSA and footprinting buffers as in cited work; details: protein: recombinant; tags: N-terminal His6 + thrombin site; chain copies: 2; label: 3'-biotin-TEG on S1 capture oligo; 36 bp duplex, 5' overhang 15 nt annealed to immobilized S1 (S39)
T3 sequence: T2 sequence with A38K

gp6 [3] = target: T3, gp6; assay: SPR; SPR: 25 mM Tris-HCl pH 7.4, 140 mM NaCl, 5 mM EDTA, 2 mM DTT, 0.1 mg/ml BSA, 0.005% P20, 25 C; EMSA and footprinting buffers as in cited work; details: protein: recombinant, tags: N-terminal His6 + thrombin site, chain copies: 2, label: 3'-biotin-TEG on S1 capture oligo, 5' overhang 15 nt annealed to immobilized S1 (S39)

## TGTTGAACAAGGAATAGTAGAAAAGGACTAGCAAAGTTGCTAGTCTTTTTTATTTGTCCAAAATGACACACGTGTGACGTTATGCGGAACACTCGTTCGTATTATAGTATACATATAGCGAACAAACATTCGATAAGGAGTGTGACAAAGTGGATGCTTTAACGGAACTAATCATAGCTAACAATAAAGTGGAAATGCTT (double strand) [P3 fragment with dinBox2 and dinBox3 (EMSA7/EMSA10)]
[1]
  binding: no binding

B1: B23_Swt (gp6 site) (dsDNA)
DNA 1: GTTACTACTCGAGCGATTTGTCCAAAATGACACACGTGTGACGTTATGCGG
DNA 2: CCGCATAACGTCACACGTGTGTCATTTTGGACAAAT
gp6 K38A
  binding result: no binding
gp6 [2]
  binding result: binds

B2: B23_Smns (triple mutant gp6 site) (dsDNA)
DNA 1: B1 DNA 1 with G29T, A32C, G38A
DNA 2: B1 DNA 2 with C14T, T20G, C23A
gp6 [3]; 36 bp duplex
  binding result: no binding

B3: B23_Lwt (-35, dinBox2, dinBox3) (dsDNA)
DNA 1: GTTACTACTCGAGCGATTTGTCCAAAATGACACACGTGTGACGTTATGCGGAACACTCGTTCGTATTATAGTATACATATAGCGAACAAACATTCGATAAGGAG
DNA 2: CTCCTTATCGAATGTTTGTTCGCTATATGTATACTATAATACGAACGAGTGTTCCGCATAACGTCACACGTGTGTCATTTTGGACAAAT
gp6 [3]; 89 bp duplex
  binding result: binds
